The source of these data is a protein production outcome set (Wang et al. 2014).
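Note: failed if final PepcDB status was selected cloned or expressed and not failed if soluble or beyond.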

The data set can be described thus: label from the status in PepcDB records.
In the case of “MTHIQLDFSKTLEFFGEHELKQQQEIVKSIHKTIHEGTGAGSDFLGWVDLPVDYDKEEFSRIVEASKRIKENSDVLVVIGIGGSYLGARAAIEMLTSSFRNSNEYPEIVFVGNHLSSTYTKELVDYLADKDFSVNVISKSGTTTEPAVAFRLFKQLVEERYGKEEAQKRIFATTDKEKGALKQLATNEGYETFIVPDDVGGRYSVLTAVGLLPIATAGINIEAMMIGAAKAREELSSDKLEENIAYQYATIRNILYAKGYTTEMLINYEPSMQYFNEWWKQLFGESEGKDFKGIYPSSANYTTDLHSLGQYVQEGRRFLFETVVKVNHPKYDITIEKDSDDLDGLNYLAGKTIDEVNTKAFEGTLLAHTDGGVPNMVVNIPQLDEETFGYVVYFFELACAMSGYQLGVNPFNQPGVEAYKQNMFALLGKPGFEDLKKELEERL”, the protein production result is reported as “failed”. As to “MTHNIHDNISQWMKSNEETPIVMSSRIRLARNLENHVHPLMYATENDGFRVINEVQDALPNFELMRLDQMDQQSKMKMVAKHLISPELIKQPAAAVLVNDDESLSVMINEEDHIRIQAMGTDTTLQALYNQASSIDDELDRSLDISYDEQLGYLTTCPTNIGTGMRASVMLHLPGLSIMKRMTRIAQTINRFGYTIRGIYGEGSQVYGHTYQVSNQLTLGKSELEIIETLTEVVNQIIHEEKQIRQKLDTYNQLETQDRVFRSLGILQNCRMITMEEASYRLSEVKLGIDLNYIELQNFKFNELMVAIQSPFLLDEEDDKSVKEKRADILREHIK”, the protein production entry is listed as “failed”. Under “MTHSQWQSLPRRGAYVAAINGTLGGGCAGLITASVTVVWLHAWRYWPAVLGVTAVIALLGAWLAVKRHRLTQWQLDQHGLALQRGHLWQSDTRVPISRVQHVDLRRGPIERATGLTTLVVHTAGSRLNAVALSGLDQDDAERLRDRLARQLDHDDDAL” stands “failed”.

Consider “MTHTVIVPGVGGSEQHHWQSWLQRQLSSCSRVEQNDWNLPVLSDWVSHLISHVQQLEQPVQIVAHSFGCLTTLAALEQHPQLINQVKHITLVAPANPERFGEAGFARDSQTDYRAYFHQLKPSIKTQLIISENDPWLDFEEALQLAKSWQVRATNLGKVGHINVASGFGPFPEIFDYMLP”, for which the protein production entry was “failed”.

Consider “MTHVEDDKEFKEKPLVQVLSDDDSEVKEAKDGGGEEVTGGDGEGEANEEDLGTEYLVRPVGEVEDEDDASDFDPEENGLDEEEGDEEIEEDDVDEDISLSAGKSEPLSKRKRVAKDHSEQGDVTGDNIRPSKR”, for which the protein production result was “failed”. Under “MTIAEIRKFAQTTQKFVEAENLFEHGNVVLPKKYLNKARGMAEVLYNSQVIKVSFTAKDGELTCKCSCLANVDNCVHIVAVLLKYHQMLVESKRSFNLAEAFHLDCDQAEMLIENLSLEIIAGGNFKLGFTINLDKHNPQPSVLRFYCCDATFVYFLHLENDTLHSVELSKFKPEERATLLFFDKLCKQFTVGYDRNSLLFPLAGFLKELQANTEPTIFVFNDDKIDNILFLRISKKHHGLNHVCGFSGKKVFDFVTYKQKEKQIVLRSAYLSKFTDFKFPYTINIYKLQFGEPLFFYFLIQLKRDGFKNFYFQSEDSIVKEKEYLPKLYFKVEYDPVKNKFVSDAFFKYKNHFNKGTTTVYPHRYYMAKKSDRGGFNRLLFYEEAVENFYQDQFDLGYFRKFEHLPIQDKNQIEAFKAALDDLMPVDLAEVSLSDNLLHQKPLHFALSDLEAVAVDDKQIKLSFAPSAVELKLIKRILSAYHKGNVVCIDQESWYDLKQPAAKELIQFNQFDLRNATSDGNHIYLPKYYLFEVAKIFSQYLDIKNLFDVPTIKKIEDQNNNVFDLSLEHKKITSLRNYQQEGVKIRGLEENKFGGILADEMGLGKTVQVIFALLDSYLKNHVNLPSLIIVPASLLLNKSEFEKFAPQIKVKVANIPSKERGELYEKLTNEILIVSFNVLRSDVKLITKQRFHYVVIDEAQGIKNDSSSITKAAKKVKGNFCLALTGTPIENRLLDLSCFDFVLPSFLGNKKQFTDQFEKEKTDQSFHLLMQRTSPFILRRTKSKVLKELPNKITTDIYVELNPMHQKLYEEERDRGLEEIKQIQDKSSFNILTLILKLRHLCSLPKNSQGILENSAKKEAALEIIHEAIENQRKIILFTQFIDVIDHFKDTFKEQGIEYFIFDGRKSPKSRHSIIEKFNNAKNPCVLLASLKAGGVGINLTAAEVVIHFDVWNTAVENQATDRAHRIGQKKTVQVYRIIAKNTIEERVCQVQAEKQELVSKTLVEDVNFFESLTNEELLRLFE” stands “failed”; under “MTIAQEPTALNFECETGNYHTFCPISCVAWLYQKIEDSFFLVIGTKTCGYFLQNAMGVMIFAEPRYAMAELEEGDISAQLNDYAELKRLCEQIKRDRNPSVIVWIGTCTTEIIKMDLEGLAPKLEGEIGIPIVVARANGLDYAFTQGEDTVLAAMAHRCPDKAPVAEAEKNLEHHHHHH”, “not failed”. On to “MTIDDMSLVVGMYGNYEVTKTGNLVGILEVSGINLDLLNETEQQDVFEDYGAFLMSTLGEGVDDTLQFLEPTIPVNMTTYLNGLKRRYLALQKDHPEQQFKIQLIASYLDHFTKVQESKNMTTKQHLLIVKVPIKDKSAESLNLAVAHLDEKIEQVKRDIENALTDFDVTAKILTSQEVQEILKNLINFNGLEHHHHHH”, for which the protein production result is “not failed”. The entry for “MTIFEKNVIEFVTVAAEFCAFLERAEHMKRKAFVDTSLKILPLLYLKASLLPKCETIGDEAPETYVTEEIYEILRINLAGLMGEKDDYLDVFVQDMVYSDQPIKKSVSEDLADIYQDIKDFIFVFQLGLNETMNDSLAICQENFGLLWGQKLVNTLRALHDVKYLEHHHHHH” is “failed”; for “MTIHDNTLFSADERSRFLSSYASLIRTLAPDRQLVKKVRSLLSRFTELGCFDRDKNGMHGLLRNMEVARIASCEIGLGIEAIGALLFYRPAMKGLTRPEEIAELMGEDVARLIDLLLKTSEIYMRNTAINTANFEHFLLSIAEDIRVVLLIIADRSYLLRQAKDMVCAEERTALAAEVSYLYAPLAHRLGLYAIKSEMEDLCLKYTDRQTFDFIKRKLGETKRSRDAYIEAFIAPLRRRLDEALPNIPYEMKGRTKSINSIRNKLRQQGIEFESIYDLFAIRIILDVPVKDEKAACWHVYSIITDMYQPNPQRMKDWISIPKSNGYESLHVTVMGPQNRWVEVQIRSRRMDEVAERGLAAHWKYKGIKSESGLDEFLTSVRETLEARDHSSDDSAETVKNFKMNLFTDEIYAFTPTGELIKLPQGASVLDFAFAIHSRIGCQAVGANVNGKNVPLKHKLENGDSVSIITSAQQTPKKDWLSYVVSSKARNKIKQQLRLQMESSIGVVKELLNRRLKNRKLPFEEAVFTRVVRRKGFKHLTDFYMEIAADRLDVQEVLELYSHELEEEQRRDAGSGAARRSADTFVAHPPKEEEIVKGGKSDVLVIDNNMTGVEYSFGKCCNPIYGDSVFGFVSNSGIKIHRTDCPNAPDMFSRYGYRIIEARWSGKGSTGYEATLHVIGQDNLAIVTNITSVINKEPGVSLRAYSINSKDNLFEGVFTVEVPDTSTLSILLRKIRATHGVKSAERH” it is “failed”.

As to “MTIKIALLGFGTVAKGIPYLLKENQHKLLSLEGEDIVIDKVLVRDNESRQRFINQGFTYNFVTEINTILQDSQIDIVVELMGGIEPAKTYLSQALGFGKHIVTANKDLIALHGKELMDLADARGLALFYEGAVAGGIPILRTLSHSFASDKMTRLLGILNGTSNFMLTKMFEEGWSYEQALKKAQELGYAESDPTNDVEGIDTAYKATILSQFGFGMPIDFDDVNYKGISSIRSEDVEVAQEMGFAIKLVADLRETPTGISVDVSPTLISQKHPLAAVNHVMNAVFIESIGIGQSLFYGPGAGQNPTATSVLADIIDISRSIRSQIKIKPMNTYHCPCRLSMQSDIFNEYYLAISLRNAEDSDTLGRYFEQENIGLKNVIEKALGDKQQEIYVLTDEVSQEKITQFIEEFPESGVIQLINVFKVIGG”, the protein production entry is listed as “failed”. Consider “MTILENIRGPRDLKALSEAELGELSDEIRDFLVHAVARTGGHLGPNLGVVELTVALHRVFESPDDRILWDTGHQSYVHKLLTGRQDFSKLRSKGGLSGYPSREESAHDVIENSHASTVLGWADGLAKARQVQGERSHVVAVIGDGALTGGMAWEALNNIAAARDRPLIIVVNDNERSYAPTIGGLANHLATLRTTDGYERALAWGKDVLQRTPVVGHTVYEALHGAKKGFKDAFAPQGLFEDLGLKYLGPIDGHDIGAVESALRRAKRFHGPVLVHCLTEKGRGYEPALRDEEDHFHTVGVMDPLTCEPLGPAGGPSWTSVFGEEIVRIGEERADVVAITAAMLHPVGLAPFAERFPDRVWDVGIAEQHAAVSAAGLATGGLHPVVAVYATFLNRAFDQLLMDVALHRCGVTFVLDRAGVTGVDGASHNGMWDMSVLQVVPGLRIAAPRDADQLRTQLREAVAVDDAPTLLRFPKESVGPAVPAVDRIGGLDVLHTADRSEVLLVAVGVMAPVCLGAAELLEARGIGCTVVDPRWVKPVDPALAPLAARHRLVAVVEDNSRAAGVGSAVALALGDAEVDVPVRRFGIPEQFLAHAKRAEVLADIGLTPVDVAGRIAASLALAEPAGDRAGGPAVEQPGDGRMSGDGRIVMPAQGEN”, for which the protein production result is listed as “failed”. The entry for “MTIMLTPMQTEEFRSYLTYTTKHYAEEKVKAGTWLPEDAQLLSKQVFTDLLPRGLETPHHHLWSLKLNEKDIVGWLWIHAEPEHPQQEAFIYDFGLYEPYRGKGYAKQALAALDQAARSMGIRKLSLHVFAHNQTARKLYEQTGFQETDVVMSKKL” is “not failed”; for “MTIPLIIGGVLLAILILLILVFITKYRTVGPDEALIVTGNWLGGGKNVVTTDDGKKIKIIRGGGTFVVPIMQRAEPLSLLNYKLEVGTRDTYTKQGVPVTVNGVSIIKVGSTIEEVSTAAEQYLGKETEELKVEAKEVLEGHLRAILSSMTVEDAYSNREQFAQKVHEVASTDLKKMGLRIVSFTIKEIMDKNGYLDALGQPQIATVKRDATIANAEREKEARIEKARAEKEAKEAEYQRDAQIAEAEKHKELKVQSYKREQEQARADADLSYELQQAKAQQGVTEEQMRVKIIEREKQIELEEKEIARREKQYDAEVKKKADADRYAVEQSAEAEKVKQIKKADADQYKIEAEARARAEEVRVEGLAKAEIEKAQGQAKAEVQKAQGTAEADVIRLKGLAEAEAKQKIAEAFELYGQAAIMDMVLKMLPSYAKEVASPLSNIDKITVVDTGGGGKNSGAGKVAGYATDLMATMQETLKASSGIDLKELLEGFAGKGAVQQLSSDKPVVSVVEDEKKEVEKDKELEHHHHHH” it is “failed”; for “MTIPTSYLNHTDAEAARKARATYRDGLVAPTSGIAPGFTQANMIVLPRDWAFDFLLYAQRNPKPCPVLDVSDPGSPTTLLAPGADLRTDLPLYRIWRDGKLAEETADATSAWAERDDLVAFLIGCSFTFETPMVEAGIEIRHMTDKSNVPMYLTNRPCRPAGRLKGNMVVSMRPIPASRVADAATISGRFPAVHGAPVHVGAPEQIGISDLSKPDFGDAVRIEPGEVPVFWACGVTPQAAVMASGVPFAITHAPGHMFITDIPDTAYHALEHHHHHH” it is “not failed”. Under “MTIRISGKSISIGEALRSRVSERTEEVLRKYFDGNYSGHFTLSKDGFGFRTDCALHLDSGITLEAESNAADAYVSADQALVQIEKRLRRYKSRLKDRSSRKAHAEANALAELSTPVDAASYVIEAPGDEEHHEDAYNPVIIAEATTAMKRLSVSEAVVELDLTGAPVVVFLHGSSGRVNIIYRRADGNIGWIDPPVLNGAN” stands “failed”; under “MTITNSKAEAWELIGNQFWTIGRVAARPSDRENDIFLENIVPGSTVAVIGASTRFLIEKALERGASVTVFDFSQRMCDDLAEALADRCVTIDLLDITAEIPKELAGHFDFVLNDRLINRFTTEEARRACLGMLSLVGSGTVRASVKLGFYDIDLKLIEYGEQSGTLAKFFDPSDKTFHFREAGDVLDRALVPHGLIDKPTLLEWYRRRGKETRFDDEDVRALLSHDVVNARGYVTLEKAVELPDAPNTMLYQFSRRAG”, “not failed”.
